From doi:10.1101/2021.09.24.461649 (bioRxiv, 2021)

Biological target: the molecule itself
Assay: SEC

B1: EspC (ESX-1 secreted protein C), wild type (natural protein)
chain: MMTENLTVQPERLGVLASHHDNAAVDASSGVEAAAGLGESVAITHGPYCSQFNDTLNVYLTAHNALGSSLHTAGVDLAKSLRIAAKIYSEADEAWRKAIDGLFT
stoichiometry N: 6
